Data as given in US20240150451A1.

Target: tau of P301S transgenic mice (aggregated tau in brainstem; tau seeds from spinal cord) (UniProt P10636)
Assay: cell-based or functional assay

tau of P301S transgenic mice (aggregated tau in brainstem; tau seeds from spinal cord), sequence (P10636 other isoform, or with tags, fused parts or gaps P301S P301S): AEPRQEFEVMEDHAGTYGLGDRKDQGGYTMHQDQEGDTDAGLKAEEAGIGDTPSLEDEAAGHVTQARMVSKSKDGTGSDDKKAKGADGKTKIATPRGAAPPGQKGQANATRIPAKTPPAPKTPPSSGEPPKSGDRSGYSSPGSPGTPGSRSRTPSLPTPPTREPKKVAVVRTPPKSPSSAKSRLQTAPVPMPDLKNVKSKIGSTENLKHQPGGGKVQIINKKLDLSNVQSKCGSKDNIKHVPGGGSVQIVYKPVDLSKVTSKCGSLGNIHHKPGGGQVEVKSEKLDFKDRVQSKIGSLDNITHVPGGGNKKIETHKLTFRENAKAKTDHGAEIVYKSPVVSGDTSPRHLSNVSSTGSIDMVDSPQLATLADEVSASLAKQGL

Row | Binder | % inhibition of tau seeding in FRET biosensor cells after immunodepletion, antibody 3 nM [%] | % inhibition of tau seeding in FRET biosensor cells after immunodepletion, antibody 300 nM [%]
1 | hTau60 monoclonal antibody (recombinant, mouse IgG2a/kappa) (antibody, V domains shown) VH: EVQLQQSGPELVKPGTSVKISCKVFGYTFTDYYMNWVKQSHGKSLEWIGDINPDNGETTYNQKFKGKATLTVDKSSSTAYMELRSLTSEDSAVYYCAKGATFVYWGQGTLVTVSA VL: DVVMTQTPLSLPVSLGDQASISCISSQSLVHSTGTTFLHWFLQKPGQSPKLLIYKVSNRFSGVPDRFSGSGSGTDFTLKISRVEAEDLGFYFCSQSTYFPLTFGSGTKLEIKR | 22 | 99.7
2 | PT66 monoclonal antibody (recombinant, mouse IgG2a/kappa) (antibody, V domains shown) VH: QVQLQQPGAELVKPGASVKMSCKASGYTFTSYWITWVKQRPGQGLEWIGDIHPGRGSTKSNEKFKSKATLTVDTSSSTAYMQFSSLTSEDSAVYYCARRWGFDYWGQGTTLTVSS VL: DIVITQDELSNPVTSGESVSISCRSSKSLLYKDGKTYLNWFLQRPGQSPQLLIYLMSTRASGVSDRFSGSGSGTDFTLEISRVKAEDVGVYYCQQLVDYPLTFGAGTKLELKR | 46.5 | 99.7
3 | PT69 monoclonal antibody (recombinant, mouse IgG2a/kappa) (antibody, V domains shown) VH: QVQLQQPGAELVKPGASVKMSCKASGYTFTNYWITWVKQRPGQGLEWIGDIYPGSGRTKSNEKFKNKATLTADTSSSTAYMQLSSLTSEDSAVYYCTRRWGLDYWGQGTTLTVSS VL: DIVITQDELSNPVTSGESVSISCRSNKSLLYKDGKTYLNWFLQRPGQSPQLLIYLMSTRASGVSDRFSGSGSGTDFTLEISRVKAEDVGVYYCQQLVDYPLTFGAGTKLELKR | 45.8 | 99.8
